Positions count from the first letter of the chain named.
T1: human IL-12Rβ2-huFc-his (R&D system), biotinylated (human, UniProt Q99665 24-622, limits assumed, biotinylated)
T1 construct: bought; captured on Neutravidin in the ELISA; also called Bio-huIL-12Rβ2-huFc-His
T1 sequence (looked up): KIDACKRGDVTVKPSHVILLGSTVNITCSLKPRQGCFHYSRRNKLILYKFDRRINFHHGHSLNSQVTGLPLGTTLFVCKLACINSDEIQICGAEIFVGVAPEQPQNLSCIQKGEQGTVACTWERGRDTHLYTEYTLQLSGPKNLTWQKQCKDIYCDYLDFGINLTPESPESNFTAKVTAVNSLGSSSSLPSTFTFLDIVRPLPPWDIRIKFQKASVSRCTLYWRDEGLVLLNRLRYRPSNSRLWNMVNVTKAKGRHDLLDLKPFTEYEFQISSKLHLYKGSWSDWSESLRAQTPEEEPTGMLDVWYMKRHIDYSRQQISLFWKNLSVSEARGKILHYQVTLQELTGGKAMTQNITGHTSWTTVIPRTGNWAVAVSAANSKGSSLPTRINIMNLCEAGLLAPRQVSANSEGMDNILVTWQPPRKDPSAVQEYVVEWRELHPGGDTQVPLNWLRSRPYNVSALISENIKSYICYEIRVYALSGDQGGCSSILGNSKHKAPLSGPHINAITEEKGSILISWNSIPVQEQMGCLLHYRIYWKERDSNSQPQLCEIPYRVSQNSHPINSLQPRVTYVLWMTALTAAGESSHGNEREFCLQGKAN

T2: cyno IL-12RB2 with C-terminal HA tag, transiently expressed on HEK-293T cells (cyno, UniProt A0A2K5VNI7 24-860)
T2 construct: whole, on cells; also called cyno IL-12Rβ2
T2 sequence: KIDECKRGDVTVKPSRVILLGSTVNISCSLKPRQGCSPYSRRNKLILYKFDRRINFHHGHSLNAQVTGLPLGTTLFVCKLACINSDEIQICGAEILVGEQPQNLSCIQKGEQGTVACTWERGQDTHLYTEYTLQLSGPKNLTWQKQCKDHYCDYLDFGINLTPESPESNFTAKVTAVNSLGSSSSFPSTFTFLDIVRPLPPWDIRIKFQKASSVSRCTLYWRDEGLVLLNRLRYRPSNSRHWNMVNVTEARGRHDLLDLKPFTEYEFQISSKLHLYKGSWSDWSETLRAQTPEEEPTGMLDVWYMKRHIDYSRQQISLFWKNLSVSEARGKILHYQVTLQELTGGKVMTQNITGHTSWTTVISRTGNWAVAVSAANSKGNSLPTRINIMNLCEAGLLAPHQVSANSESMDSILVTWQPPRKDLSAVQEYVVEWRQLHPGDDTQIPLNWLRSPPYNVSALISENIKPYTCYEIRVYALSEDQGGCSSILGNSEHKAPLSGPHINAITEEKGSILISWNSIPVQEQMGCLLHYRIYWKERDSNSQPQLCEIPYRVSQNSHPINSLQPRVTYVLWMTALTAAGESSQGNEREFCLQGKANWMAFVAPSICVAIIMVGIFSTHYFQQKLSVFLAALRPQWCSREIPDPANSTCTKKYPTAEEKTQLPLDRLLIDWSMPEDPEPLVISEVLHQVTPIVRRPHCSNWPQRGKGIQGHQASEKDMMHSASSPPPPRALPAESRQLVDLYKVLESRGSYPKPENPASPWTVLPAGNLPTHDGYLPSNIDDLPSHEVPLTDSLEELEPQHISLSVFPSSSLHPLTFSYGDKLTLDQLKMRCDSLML

T3: human IL-12RB2 with C-terminal HA tag, transiently expressed on HEK-293T cells (human, UniProt Q99665 24-862)
T3 construct: whole, on cells; also called human IL-12Rβ2
T3 sequence (looked up): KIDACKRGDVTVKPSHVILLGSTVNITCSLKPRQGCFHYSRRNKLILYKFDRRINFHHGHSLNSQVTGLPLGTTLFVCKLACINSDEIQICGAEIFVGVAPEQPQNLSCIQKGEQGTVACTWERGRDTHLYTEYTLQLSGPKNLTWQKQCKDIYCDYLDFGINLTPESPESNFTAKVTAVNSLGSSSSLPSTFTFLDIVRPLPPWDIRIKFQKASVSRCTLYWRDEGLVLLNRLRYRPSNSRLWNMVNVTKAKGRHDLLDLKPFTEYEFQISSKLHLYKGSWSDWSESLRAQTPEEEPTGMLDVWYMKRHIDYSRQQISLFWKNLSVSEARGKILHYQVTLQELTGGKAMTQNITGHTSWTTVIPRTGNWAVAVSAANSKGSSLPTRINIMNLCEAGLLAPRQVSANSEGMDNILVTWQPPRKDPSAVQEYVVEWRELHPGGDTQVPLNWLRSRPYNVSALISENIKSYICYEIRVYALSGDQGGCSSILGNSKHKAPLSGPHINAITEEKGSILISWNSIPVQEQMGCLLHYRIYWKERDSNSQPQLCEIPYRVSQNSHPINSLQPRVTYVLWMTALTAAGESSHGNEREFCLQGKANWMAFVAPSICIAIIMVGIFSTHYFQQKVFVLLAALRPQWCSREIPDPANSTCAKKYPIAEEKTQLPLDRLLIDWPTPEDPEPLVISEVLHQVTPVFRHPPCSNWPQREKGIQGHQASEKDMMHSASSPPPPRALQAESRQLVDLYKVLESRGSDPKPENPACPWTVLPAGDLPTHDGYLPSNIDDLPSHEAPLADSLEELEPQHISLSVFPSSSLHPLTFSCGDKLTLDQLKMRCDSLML

B1: VHH64B2 (VHH)
VHH: QVQLVESGGGLVQPGGSLRLSCAASGFTFSSKAMHWFRQAPGKGLEWVSSINSGGAITYYKDSVKGRFTVSRDNAKNILYLEMNSLKPEDTALYYCATDTDGRTRGQGTQVTVSS
B2: 85801_01M07 (antibody, V domains shown)
VH: QVQLVQSGAEVKKPGASVKVSCKASEYTFTDDYMHWVRQAPGQGLVWMGWINPNSGGTNYAQKFQGRVTMTRDTSISTAYMELSRLRSDDTAVYYCARGGLNWGWDWFDPWGQGTLVTVSS
VL: EIVLTQSPGTLSLSPGERATLSCRASQNINNNYLAWYQRKPGQAPRLLIYGASSRATGIPDRFSGSGSGTDFTLTISRLEPEDFAMYYCQQYGSSLTFGGGTKVEIK
notes: also called 85801_01M07A
B3: 85801_01L02 (antibody, V domains shown)
VH: QVQLVHSGPEVKKPGASVKVSCKASGYTFTDYYMHWVRQAPGQGLEWMGWINPDSGGTNYAQKFQGRVTMTRDTSISTAYMELSRLRSDDTAVYHCAREGATSNFDYWGQGTLVTVSS
VL: DIQMTQSPSSLSASVGDRVTITCRASQGISNYLAWFQQKPGKAPTSLIYAASNLQGGVPSKFSGSGSGTDFTLTISSLQPEDFATYYCQQYRYYPFTFGPGTKVDIK
notes: also called 85801_01L02A
B4: 85801_04D10 (antibody, V domains shown)
VH: EVQLLESGGGLVQPGGSLRLSCAASGFTFSSYAMSWVRQAPGKGLEWVAGISGSGGGIYYADSVKGRFTISRDNSKNTLYLQLNSLRADDTAVYYCARRLIGYWYFDLWGRGTLVPVSS
VL: B3 VL with T45K, N53S, G56S, R92N, Y93S, F96P, P100G, D105E
notes: also called 85801_04D10A
B5: 85801_01002 (antibody, V domains shown)
VH: QVQLVQSGAEVRKPGASVKVSCKASGYTFTDYYMHWVRQAPGQGLEWMGWINPDNGGANYAQRFLGRVTMTRDTSISTAYMELSRLRSDDTAVYYCAREGSGSPYAFDLWGLGTVVTVSS
VL: DIQLTQSPSFLSASVGDRVTITCRASQGISSYLAWYQQKPGKAPKLLIYAASTLQSGVPSRFSGSGSGTEFTLTISSLQPEDFATYCCQQLNRYPFTFGQGTKLEIK
notes: also called 85801_01O02A
B6: 85801_02K24 (antibody, V domains shown)
VH: QVQLQESGPGLVKPSETLSLTCTVSGGSISSYDWSWIRQSAGKGLEWIGRIYTSGSTIYNPSLKSRVTMSVDTSKNEISLKLSSVTAADTAFYYCAKDRGNYPHDAFDIWGQGTMITVSS
VL: B5 VL with Y32F, C87Y, R93G, Q100P, L104V, E105D
notes: also called 85801_02K24A
B7: 85801_02N03 (antibody, V domains shown)
VH: QVHLVQSGAEVKKPGASVKVSCEASGYTFTDYYIHWLRQAPGQGLEWMGWINPNSGGTHYAQKFQGRVTMTRDTSISTAYMELSRLSSDDTAVYYCAREGGWNYFSGMDVWGQGTTVTVSS
VL: B5 VL with K39Q, A43P, Q55H, C87Y, F96Y, F98C
notes: also called 85801_02N03A
B8: VHH67B2 (VHH)
VHH: QVQLVESGGGLVQPGGSLRLSCAASGFTFSNYAMSWIRQGPERGFEWVSRINSGGGTTSYADSVKGRFTISRDNAKNTLYLQMNSLKPEDTAVYYCAKHSHPDYSSNYYRPGQGTQVTVSS
B9: 85801_01D14 (antibody, V domains shown)
VH: EVQLVESGGGLVKPGGSLRLSCAASGFTFSNAWMNWVRQAPGKGLEWVGRIKSKTDGGTTDYAAPVKGRFTVSRDDPKNTLYLQMNSLKTEDTAVYYCTTDPGWEFDYWGQGILVTVSS
VL: DIQMTQSPSSLSASVGDRVTITCQASQDISNFLNWYQQKPGKAPNLLIYDASDLETGVPSRFSGSGSGTDFTFTISSLQPEDIATYYCQQYDNLPLTFGGGTKVEIK
notes: also called 85801_01D14A
B10: 85801_02011 (antibody, V domains shown)
VH: EVQLVESGGGLVQPGGSLRLSCAASGFTFSSYDMNWVRQAPGKGLEWISYINSRSSTIYYADSVKGRFTISRDNAKNSLYLQMNSLRDEDTALYYCAREIEDSMDVWGQGTTVTVSS
VL: QSVLTQPPSVSAAPGQKVTISCSGSSSNIGNNYVSWYQQLPGTAPKLLIYDNNERPSGIPDRFSGSKSGTSATLGITGLQPGDEADYYCGTWDSSLSAGVFGGGTKLTVL
notes: also called 85801_02O11A
B11: 85801_03P23 (antibody, V domains shown)
VH: EVQLVESGGGLVQPGGSLRLSCAASGFTFSSYWMSWVRQAPGKGLEWVANIKQDGSEKYYVDSVKGRFTISRDNAKNSLYLQMNSLRAEDTAVYYCARGSIAAPFDYWGQGTLVTVSS
VL: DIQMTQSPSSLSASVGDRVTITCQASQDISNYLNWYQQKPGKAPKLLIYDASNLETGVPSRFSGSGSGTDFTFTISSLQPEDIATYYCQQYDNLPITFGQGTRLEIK
notes: also called 85801_03P23A

Key:
[1] = biological target: T1, human IL-12Rβ2-huFc-his (R&D system), …; assay: ELISA, periplasmic extract
[2] = biological target: T2, cyno IL-12RB2 with C-terminal HA tag, …; assay: FACS, periplasmic extract, HEK-293T
[3] = biological target: T3, human IL-12RB2 with C-terminal HA tag, …; assay: FACS, periplasmic extract, HEK-293T
[4] = biological target: T4, IL-12 receptor endogenously expressed on THP-1 cells (UniProt P42701 24-662; Q99665 24-862); assay: FACS, hybridoma supernatant, THP-1
T4 construct: whole, on cells

[5] = biological target: T5, human IL-12RB1 overexpressed on 293T cells (Example 2) (human, UniProt P42701 24-662); assay: FACS, hybridoma supernatant, 293T
T5 construct: whole, on cells

[6] = biological target: T6, cyno IL-12RB1 overexpressed on 293T cells (Example 2) (cyno, UniProt A0A2K5VWV1 24-662); assay: FACS, hybridoma supernatant, 293T
T6 construct: whole, on cells

Binder	OD450 nm [1]	FOB [2]	FOB [3]	Fold over buffer [4]	Fold over parental 293T [5]	Fold over parental 293T [6]
B1	2.22	2.69 fold	1.68 fold			
B2				7 fold	91 fold	28 fold
B3				41 fold	117 fold	32 fold
B4				42 fold	76 fold	20 fold
B5				38 fold	107 fold	13 fold
B6				33 fold	130 fold	53 fold
B7				41 fold	221 fold	85 fold
B8	0.581	2.32 fold	1.73 fold			
B9				24 fold	116 fold	52 fold
B10				35 fold	114 fold	56 fold
B11				39 fold	69 fold	23 fold

From patent US20250019450A1 (DIAGONAL THERAPEUTICS, published 2025)
